The supplement of paper PMC9876800

System: peptide library, one residue held at a place counted from the S/T acceptor
Assay: relative phosphorylation of the sub-library (ratio to the mean residue at this position); higher = residue favoured
Settings: human
Method in brief: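 In 384-well plates, purified recombinant kinases (human or orthologue constructs) were incubated for 90 min under kinase-specific conditions with 50 μM biotinylated degenerate peptide sub-libraries and 50 μM ATP spiked with γ-32P-ATP. Each sub-library fixed a single residue at one position around a central Ser/Thr. Relative sub-library phosphorylation, measured by phosphorimaging and densitometry of streptavidin membrane spots, is given as a ratio to the mean residue at that position.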

PHKG1, construct: Full length, sequence (Q16816 whole entry, looked up): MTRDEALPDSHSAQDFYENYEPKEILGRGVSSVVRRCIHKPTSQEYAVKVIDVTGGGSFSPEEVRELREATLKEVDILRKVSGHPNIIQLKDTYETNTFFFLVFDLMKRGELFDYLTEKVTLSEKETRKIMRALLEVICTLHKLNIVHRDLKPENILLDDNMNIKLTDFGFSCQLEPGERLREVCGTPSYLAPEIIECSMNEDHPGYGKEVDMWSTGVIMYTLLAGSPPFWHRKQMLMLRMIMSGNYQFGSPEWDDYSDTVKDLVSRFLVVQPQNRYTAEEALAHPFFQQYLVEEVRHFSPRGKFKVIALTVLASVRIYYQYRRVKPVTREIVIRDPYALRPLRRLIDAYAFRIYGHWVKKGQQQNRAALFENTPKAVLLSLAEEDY
PAK6, construct: aa382-end, sequence (Q9NQU5 382-681, looked up): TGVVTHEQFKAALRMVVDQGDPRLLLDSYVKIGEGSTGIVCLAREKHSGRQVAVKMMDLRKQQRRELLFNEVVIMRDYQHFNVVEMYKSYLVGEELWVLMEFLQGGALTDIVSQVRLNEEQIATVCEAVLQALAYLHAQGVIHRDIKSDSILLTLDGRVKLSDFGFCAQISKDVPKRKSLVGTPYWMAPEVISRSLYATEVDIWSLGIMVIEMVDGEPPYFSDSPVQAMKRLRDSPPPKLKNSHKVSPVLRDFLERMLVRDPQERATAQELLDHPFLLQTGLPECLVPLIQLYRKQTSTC
PASK, construct: aa949-1323, sequence (Q96RG2 949-1323, looked up): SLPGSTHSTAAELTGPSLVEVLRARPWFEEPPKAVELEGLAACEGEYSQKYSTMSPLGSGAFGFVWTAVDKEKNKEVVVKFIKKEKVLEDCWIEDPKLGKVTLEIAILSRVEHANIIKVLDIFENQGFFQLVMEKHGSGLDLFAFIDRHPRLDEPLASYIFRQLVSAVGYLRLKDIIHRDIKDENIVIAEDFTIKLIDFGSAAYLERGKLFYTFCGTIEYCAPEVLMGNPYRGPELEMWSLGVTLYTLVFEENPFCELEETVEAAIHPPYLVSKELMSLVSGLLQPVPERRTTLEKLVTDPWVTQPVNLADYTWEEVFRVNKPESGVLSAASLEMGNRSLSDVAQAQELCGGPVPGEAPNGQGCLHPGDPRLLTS
PDK4, construct: Full length, sequence (Q16654 whole entry, looked up): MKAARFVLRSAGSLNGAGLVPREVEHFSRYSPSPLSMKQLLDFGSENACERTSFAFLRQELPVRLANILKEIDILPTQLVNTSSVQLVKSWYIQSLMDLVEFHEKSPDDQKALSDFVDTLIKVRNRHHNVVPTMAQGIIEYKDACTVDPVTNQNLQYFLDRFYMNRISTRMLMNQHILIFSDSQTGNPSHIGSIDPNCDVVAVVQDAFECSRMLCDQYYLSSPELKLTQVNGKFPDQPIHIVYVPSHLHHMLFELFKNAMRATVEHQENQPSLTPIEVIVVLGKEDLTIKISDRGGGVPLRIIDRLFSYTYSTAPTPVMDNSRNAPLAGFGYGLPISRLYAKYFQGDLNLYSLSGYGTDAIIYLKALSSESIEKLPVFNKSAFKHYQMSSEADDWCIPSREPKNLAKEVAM

PAK6, construct: aa382-end (from UniProt Q9NQU5)
relative phosphorylation
Settings	at +1	at +2	at +3	at +4	at -1	at -2	at -3	at -4	at -5
A fixed	0.845	5.4	1.16	1.06	0.921	0.523	0.766	1.19	1.21
D fixed	0.225	0.407	0.707	0.827	0.361	0.117	0.216	0.554	0.759
E fixed	0.233	0.264	1.08	0.69	0.256	0.109	0.18	0.635	0.568
F fixed	1.37	0.835	0.986	0.672	1.12	0.626	0.638	0.778	0.855
G fixed	0.376	0.695	1.18	1.29	0.619	0.31	0.553	1.24	1.19
H fixed	0.97	0.78	1.26	1.02	1.19	1.1	0.753	0.941	0.884
I fixed	1.56	0.752	0.887	0.623	1.14	0.767	1.11	1.33	1.41
K fixed	0.887	0.594	0.818	1.31	1.76	0.97	4.26	1.63	1.59
L fixed	1.63	0.798	1.11	0.609	1.29	0.662	0.802	0.903	1.15
M fixed	1.44	0.706	1.05	0.786	1.09	0.461	0.655	0.943	0.875
N fixed	0.49	0.704	0.72	1.03	0.917	0.276	0.479	0.792	0.873
P fixed	0.313	0.643	1.3	1.96	0.304	0.501	0.561	0.968	0.892
Q fixed	0.693	0.526	0.909	1.15	0.78	0.456	0.674	0.81	0.784
R fixed	1.07	0.67	0.974	1.57	2.53	8.47	3.53	1.58	1.53
V fixed	1.61	1	0.897	0.753	0.627	0.5	0.742	1.19	1.02
W fixed	1.86	0.891	0.905	0.853	0.9	0.409	0.56	0.762	0.691
Y fixed	1.42	1.33	1.07	0.807	1.2	0.737	0.525	0.755	0.731
pThr fixed	0.461	0.494	0.647	0.905	0.272	0.192	0.315	0.558	0.665
pTyr fixed	0.684	0.465	0.993	0.687	0.358	0.219	0.379	0.61	0.496

PASK, construct: aa949-1323 (from UniProt Q96RG2)
relative phosphorylation
Settings	at +1	at +2	at +3	at +4	at -1	at -2	at -3	at -4	at -5
A fixed	0.999	0.848	0.766	0.739	0.615	1.36	0.758	0.939	0.757
D fixed	1.04	2.11	1.66	1.65	1.2	0.778	0.63	1	0.896
E fixed	1.4	1.34	1.35	1.43	0.919	0.762	0.711	1.55	0.776
F fixed	1.07	0.829	1.14	0.825	0.491	0.814	0.565	0.779	0.72
G fixed	1.11	0.967	0.808	1.03	0.746	1.19	0.864	0.804	0.811
H fixed	1.21	1.25	1.14	1.12	0.903	1.33	0.927	1.04	2.98
I fixed	0.665	0.664	0.583	0.748	0.384	0.493	0.425	0.663	0.742
K fixed	0.944	0.698	0.956	0.853	2.22	1.42	1.34	1.39	1.33
L fixed	0.665	0.65	0.784	0.732	0.609	0.746	0.484	0.723	1.03
M fixed	0.914	0.758	0.823	0.764	0.665	0.774	0.55	0.829	0.909
N fixed	1.09	1.49	1.03	1.08	1.59	1.16	0.623	0.995	0.884
P fixed	0.623	0.796	1.2	1.41	2.89	1.54	1.83	1.3	0.66
Q fixed	0.932	1.14	0.996	1.07	1.07	1.08	0.764	1.05	0.788
R fixed	0.787	0.825	0.888	0.65	0.954	1.38	4.8	1.42	1.39
V fixed	0.854	0.71	0.591	0.668	0.447	0.638	0.433	0.68	0.625
W fixed	1.26	0.953	1.25	1.05	0.53	0.704	0.664	0.944	0.927
Y fixed	1.45	0.966	1.04	1.18	0.774	0.835	0.635	0.9	0.775
pThr fixed	3.06	2.97	2.92	2.7	1.02	1.43	1.04	1.25	1.11
pTyr fixed	2.5	2.53	3.07	2.25	1.58	1.41	1.28	1.98	1.59

PDK4, construct: Full length (from UniProt Q16654)
relative phosphorylation
Settings	at +1	at +2	at +3	at +4	at -1	at -2	at -3	at -4	at -5
A fixed	0.674	0.87	1.15	0.987	1.05	0.953	0.939	0.873	1.06
D fixed	0.79	1.21	1.1	1.16	1.09	0.775	0.841	0.861	0.995
E fixed	0.679	1.64	1.06	0.972	0.718	0.715	0.788	0.818	0.876
F fixed	1.34	0.962	1.52	1.07	1.21	1.03	1.65	1.53	1.25
G fixed	0.705	1.22	1.05	1.06	1.29	1.22	1.02	0.992	1.03
H fixed	0.838	0.883	1.09	0.947	1.02	1.23	1.11	0.983	0.996
I fixed	1.2	0.742	1.03	0.802	0.778	0.776	0.912	0.897	0.99
K fixed	0.692	0.745	0.622	0.834	0.847	0.889	0.827	0.86	0.88
L fixed	1.74	0.951	0.993	0.98	0.947	0.97	0.961	0.905	1.05
M fixed	1.48	1.06	1.23	1.02	1.15	1.08	1.07	1.04	1.29
N fixed	0.732	1.05	0.898	1.36	1.1	0.883	0.906	0.964	1.15
P fixed	0.825	0.823	0.93	1.01	0.874	1.09	0.973	0.878	0.723
Q fixed	0.862	1.09	0.818	0.959	0.89	0.964	0.912	0.95	0.791
R fixed	0.853	0.939	0.729	0.968	1.03	1.02	0.913	0.962	0.869
V fixed	0.972	0.791	0.771	0.828	0.783	0.864	0.831	0.827	0.825
W fixed	1.61	1.03	1.01	1.04	1.22	1.55	1.35	1.66	1.21
Y fixed	1.34	0.962	1.52	1.07	1.21	1.03	1.65	1.53	1.25
pThr fixed	0.849	1.01	1.27	1.36	0.587	0.794	0.865	0.973	1.09
pTyr fixed	0.895	1.19	0.99	1	0.7	0.943	1.31	1.83	1.07

PHKG1, construct: Full length (from UniProt Q16816)
relative phosphorylation
Settings	at +1	at +2	at +3	at +4	at -1	at -2	at -3	at -4	at -5
A fixed	0.524	0.708	0.898	0.937	0.837	1.11	0.736	0.926	1
D fixed	0.175	0.2	0.276	0.343	0.512	0.624	0.356	0.439	0.436
E fixed	0.197	0.139	0.272	0.238	0.411	1.49	0.376	0.573	0.367
F fixed	3.7	1.16	1.29	1.13	1.06	0.838	0.53	0.865	1.18
G fixed	0.491	0.721	1.06	1.02	0.741	1.13	0.824	1.15	0.937
H fixed	0.712	1.35	1.3	1.18	1.24	0.984	1.12	1.11	1.1
I fixed	1.5	0.516	0.891	0.75	0.611	0.363	0.278	0.728	0.791
K fixed	0.777	2.04	1.37	2.01	1.44	1.12	2.55	1.56	1.46
L fixed	1.17	0.544	1.06	0.956	0.927	0.576	0.376	0.823	1.34
M fixed	1.65	0.694	0.957	0.886	1.18	0.969	0.458	0.957	0.824
N fixed	0.513	0.739	0.786	0.866	1.32	1.28	0.721	0.764	0.664
P fixed	0.292	0.721	1.09	1.29	0.999	0.702	0.926	1.17	1.01
Q fixed	0.779	0.703	0.782	1.01	1.14	2.05	0.936	0.927	0.779
R fixed	0.876	3.73	1.46	1.67	1.57	1.55	4.81	1.63	1.58
V fixed	1.22	0.501	0.721	0.752	0.711	0.508	0.311	0.721	0.832
W fixed	1.21	1.48	1.56	1.1	0.931	0.813	0.98	1.58	1.71
Y fixed	1.22	1.06	1.24	0.862	1.38	0.875	0.71	1.08	0.99
pThr fixed	0.419	0.25	0.393	0.356	0.535	0.529	0.621	0.846	0.68
pTyr fixed	0.329	0.171	0.348	0.254	0.675	0.4	0.469	0.721	0.599
